Source: patent USRE50880 (Kymab Limited, dated 2026)

Target: Recombinant Human OX40L (Leader sequence, Isoleucine Zipper and FLAG Sequence Included) (human)
Test: cell-based or functional assay

Sequence of Recombinant Human OX40L (Leader sequence, Isoleucine Zipper and FLAG Sequence Included) (human) (chain, as listed by the source limits assumed): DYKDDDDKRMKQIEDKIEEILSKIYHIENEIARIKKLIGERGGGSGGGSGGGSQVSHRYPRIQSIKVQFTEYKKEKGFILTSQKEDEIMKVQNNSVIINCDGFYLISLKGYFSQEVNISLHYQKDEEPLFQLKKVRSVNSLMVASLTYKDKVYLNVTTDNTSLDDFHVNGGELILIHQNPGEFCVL

| Primary T-cell Assay IC50 nM (recombinant OX40L induced IL2 release from primary human T cells) [nM] | Binder |
| --- | --- |
| 0.81 | 2D10 (human) (antibody, human IgG4 S228P, kappa, V domains shown) VH: EVQLVESGGGLVQPGGSLRLSCAASGFTFSNYAMNWVRQAPGKGLEWVSTISGSGGATRYADSVKGRFTISRDNSRNTVYLQMNSLRVEDTAVFYCTKDRLIMATVRGPYYYGMDVWGQGTTVTVSS VL: DIQMTQSPSSLSASVGDRVTITCRASQSISSYLNWYQQKPGKAPNLLIYAASSLQSGVPSRFSGSGSETDFTLTISSLQPEDFATYYCQQSHSVSFTFGPGTKVDIKR |
| 0.83 | 10A07 (human) (antibody, V domains shown) VH: EVQLVESGGVLVQPGGSLRLSCAASGFTFSSYIMTWVRQAPGKGLEWVSGISGSGGGTYYADSMKGRFTISRDNSKNTLYLQMNSLRVEDTAVYYCAKDRLGPITLVRGGYYYGMDVWGQGTTVTVSS VL: DIQMTQSPSSLSASVGDRVTITCRASQSISDYLNWYQQKPGKAPKFLIYAASSLQSGVPSRFSGSGSGTDFTLTVSSLQPEDFATYYCQQSYSTPRTFGQGTRVEIKR |
